Data on two molecules can be found in patent publication CN113880948A.

The assay deals with CA724抗原 (CA724). The assay is described as follows: biolayer interferometry type kinetics, antibody captured on AMQ biosensor, antigen in solution (diluted 10-fold).

As usually defined, the Kd is the equilibrium constant for the complex coming apart. One may read the koff as a measure of how fast the partners let go of each other. Read a high koff as a short-lived complex. As a reminder, the kon is a measure of how fast the partners come together. Higher therefore signals fast association.

B1: 抗CA724重组抗体 (recombinant anti-CA724 antibody made in Example 1, expressed in Expi293F cells) (antibody, mouse IgG1, kappa, V domains shown)
VH: QVQLQQSDAELVKPGASVKISCKASGYTFTDHAIHWAKQKPEQGLEWIGYISPGNDDIKYNEKFKGKATLTADKSSSTAYMQLNSLTSEDSAVYFCKRSYYGHWGQGTTLTVSS
VL: DIQMTQSPASLSVSVGETVTITCRASENIYSNLAWYQQKQGKSPQLLVYAATNLADGVPSRFSGSGSGTQYSLKINSLQSEDFGSYYCQHFWGTPYTFGGGTRLEIKG
B1 returned a Kd of 18 nM, a koff of 0.00109 s⁻¹ and a kon of 60700 M⁻¹ s⁻¹.

B2: 抗CA724单克隆抗体 (anti-CA724 monoclonal antibody purified from the hybridoma of Example 1) (antibody, V domains shown)
VH: B1 VH
VL: DIQMTQSPASLSVSVGETVTITCRASENIYSNLAWYQQKQGKSPQLLVYAATNLADGVPSRFSGSGSGTQYSLKINSLQSEDFGSYYCQHFWGTPYTFGGGTRLEIK
For B2, the Kd was determined as 16.4 nM, the off-rate (koff) was 0.000897 s⁻¹ and the kon is 54700 M⁻¹ s⁻¹.
